Literature values as cited in PMC3667669.
Read-outs that look alike come from different tables or passages of the source.

Experiments:
Cdc42 (Homo sapiens) [1] = biological target: Cdc42 (Homo sapiens) (UniProt P60953)
Cdc42 (Homo sapiens) [2] = biological target: Cdc42 (Homo sapiens) (UniProt P60953); remark: listed apart in the source

Cdc42 (Homo sapiens), sequence (P60953 1-188): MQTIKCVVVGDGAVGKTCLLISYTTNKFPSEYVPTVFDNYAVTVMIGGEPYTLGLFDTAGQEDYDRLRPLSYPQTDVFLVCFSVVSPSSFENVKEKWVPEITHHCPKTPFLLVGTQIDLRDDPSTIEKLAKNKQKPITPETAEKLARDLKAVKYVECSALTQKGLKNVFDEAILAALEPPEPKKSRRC
mero221-CBD CBD, sequence (P42768 201-321): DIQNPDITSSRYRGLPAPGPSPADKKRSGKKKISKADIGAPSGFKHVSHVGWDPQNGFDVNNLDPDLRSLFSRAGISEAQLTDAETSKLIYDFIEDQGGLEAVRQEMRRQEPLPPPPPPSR
CBD fragment CBD, sequence (P42768 201-321): as above

Kd (Cdc42 (Homo sapiens) [1]) [µM] | Kd (Cdc42 (Homo sapiens) [2]) [µM] | Substance
0.077 |  | CBD fragment CBD (from UniProt P42768)
 | 0.15 | mero221-CBD CBD (from UniProt P42768)
